Laboratory results as given in patent publication US20260125451A1 (JIANGSU HENGRUI PHARMACEUTICALS, published 2026).
Where two headings read alike, the source gives them in different places.

B1: B575702 (Fc fusion)
chain: MLQMAGQCSQNEYFDSLLHACIPCQLRCSSNTPPLTCQRYCNASVTNSVKGTNALSCRKEQGKFYDHLLRDCISCASICGQHPKQCAYFCENKLRSPGDKTHTCPPCPAPEAEGAPSVFLFPPKPKDTLMISRTPEVTCVVVDVSHEDPEVKFNWYVDGVEVHNAKTKPREEQYNSTYRVVSVLTVLHQDWLNGKEYKCKVSNKALPSSIEKTISKAKGQPREPQVYTLPPSRDELTKNQVSLTCLVKGFYPSDIAVEWESNGQPENNYKTTPPVLDSDGSFFLYSKLTVDKSRWQQGNVFSCSVMHEALHNHYTQKSLSLSPGK
notes: TACI-BCMA fusion protein; also called BCMA-ECD-TACI-d2-Fc
B2: B575703 (Fc fusion)
chain: SRVDQEERFPQGLWTGVAMRSCPEEQYWDPLLGTCMSCKTICNHQSQRTCAAFCRSLSCRKEQGKFYDHLLRDCISCASICGQHPKQCAYFCENKLRSPVNLPPELMLQMAGQCSQNEYFDSLLHACIPCQLRCSSNTPPLTCQRYCNASVTNSVKGTNADKTHTCPPCPAPEAEGAPSVFLFPPKPKDTLMISRTPEVTCVVVDVSHEDPEVKFNWYVDGVEVHNAKTKPREEQYNSTYRVVSVLTVLHQDWLNGKEYKCKVSNKALPSSIEKTISKAKGQPREPQVYTLPPSRDELTKNQVSLTCLVKGFYPSDIAVEWESNGQPENNYKTTPPVLDSDGSFFLYSKLTVDKSRWQQGNVFSCSVMHEALHNHYTQKSLSLSPGK
notes: TACI-BCMA fusion protein; also called TACI-T2-BCMA-ECD-Fc
B3: B575701 (Fc fusion)
chain: LSCRKEQGKFYDHLLRDCISCASICGQHPKQCAYFCENKLRSPGMLQMAGQCSQNEYFDSLLHACIPCQLRCSSNTPPLTCQRYCNASVTNSVKGTNADKTHTCPPCPAPEAEGAPSVFLFPPKPKDTLMISRTPEVTCVVVDVSHEDPEVKFNWYVDGVEVHNAKTKPREEQYNSTYRVVSVLTVLHQDWLNGKEYKCKVSNKALPSSIEKTISKAKGQPREPQVYTLPPSRDELTKNQVSLTCLVKGFYPSDIAVEWESNGQPENNYKTTPPVLDSDGSFFLYSKLTVDKSRWQQGNVFSCSVMHEALHNHYTQKSLSLSPGK
notes: TACI-BCMA fusion protein; also called TACI-d2-BCMA-ECD-Fc
B4: B575704 (Fc fusion)
chain: MLQMAGQCSQNEYFDSLLHACIPCQLRCSSNTPPLTCQRYCNASVTNSVKGTNASRVDQEERFPQGLWTGVAMRSCPEEQYWDPLLGTCMSCKTICNHQSQRTCAAFCRSLSCRKEQGKFYDHLLRDCISCASICGQHPKQCAYFCENKLRSPVNLPPELDKTHTCPPCPAPEAEGAPSVFLFPPKPKDTLMISRTPEVTCVVVDVSHEDPEVKFNWYVDGVEVHNAKTKPREEQYNSTYRVVSVLTVLHQDWLNGKEYKCKVSNKALPSSIEKTISKAKGQPREPQVYTLPPSRDELTKNQVSLTCLVKGFYPSDIAVEWESNGQPENNYKTTPPVLDSDGSFFLYSKLTVDKSRWQQGNVFSCSVMHEALHNHYTQKSLSLSPGK
notes: TACI-BCMA fusion protein; also called BCMA-ECD-TACI-T2-Fc
B5: B613301 (other)
heavy: EVQLVQSGAEVKKPGESLKISCKGSGYIFTNYWIAWVRQMPGKGLESMGIIYPGDSDIRYSPSFQGQVTISADKSITTAYLQWSSLKASDTAMYYCARHDIEGFDYWGRGTLVTVSSASTKGPSVFPLAPSSKSTSGGTAALGCLVKDYFPEPVTVSWNSGALTSGVHTFPAVLQSSGLYSLSSVVTVPSSSLGTQTYICNVNHKPSNTKVDKRVEPKSCDKTHTCPPCPAPEFEGGPSVFLFPPKPKDTLMISRTPEVTCVVVDVSHEDPEVKFNWYVDGVEVHNAKTKPREEQYNSTYRVVSVLTVLHQDWLNGKEYKCKVSNKALPASIEKTISKAKGQPREPQVYTLPPSRDELTKNQVSLTCLVKGFYPSDIAVEWESNGQPENNYKTTPPVLDSDGSFFLYSKLTVDKSRWQQGNVFSCSVMHEALHNHYTQKSLSLSPGK
light: EIVLTQSPGTLSLSPGERATLSCRASQSVSSSFFAWYQQKPGQAPRLLIYGASSRATGIPDRLSGSGSGTDFTLTITRLEPEDFAVYYCQQYDSSAITFGQGTRLEIKRTVAAPSVFIFPPSDEQLKSGTASVVCLLNNFYPREAKVQWKVDNALQSGNSQESVTEQDSKDSTYSLSSTLTLSKADYEKHKVYACEVTHQGLSSPVTKSFNRGECGGGGSGGGGSLSCRKEQGKFYDHLLRDCISCASICGQHPKQCAYFCENKLRSPGMLQMAGQCSQNEYFDSLLHACIPCQLRCSSNTPPLTCQRYCNASVTNSVKGTNA
notes: Fusion protein of anifrolumab and TACI-BCMA
B6: B613302 (other)
heavy: B5 heavy
light: EIVLTQSPGTLSLSPGERATLSCRASQSVSSSFFAWYQQKPGQAPRLLIYGASSRATGIPDRLSGSGSGTDFTLTITRLEPEDFAVYYCQQYDSSAITFGQGTRLEIKRTVAAPSVFIFPPSDEQLKSGTASVVCLLNNFYPREAKVQWKVDNALQSGNSQESVTEQDSKDSTYSLSSTLTLSKADYEKHKVYACEVTHQGLSSPVTKSFNRGECGGGGSGGGGSMLQMAGQCSQNEYFDSLLHACIPCQLRCSSNTPPLTCQRYCNASVTNSVKGTNALSCRKEQGKFYDHLLRDCISCASICGQHPKQCAYFCENKLRSPG
notes: as for B5
B7: Telitacicept (RCT-18) (Fc fusion)
chain: SRVDQEERFPQGLWTGVAMRSCPEEQYWDPLLGTCMSCKTICNHQSQRTCAAFCRSLSCRKEQGKFYDHLLRDCISCASICGQHPKQCAYFCENKLRSPVNLPPELDKTHTCPPCPAPEAEGAPSVFLFPPKPKDTLMISRTPEVTCVVVDVSHEDPEVKFNWYVDGVEVHNAKTKPREEQYNSTYRVVSVLTVLHQDWLNGKEYKCKVSNKALPSSIEKTISKAKGQPREPQVYTLPPSRDELTKNQVSLTCLVKGFYPSDIAVEWESNGQPENNYKTTPPVLDSDGSFFLYSKLTVDKSRWQQGNVFSCSVMHEALHNHYTQKSLSLSPGK
notes: Positive control, TACI-Fc

Legend:
[1] = target: T1, BAFF (PeproTech, Cat: 310-13) (UniProt Q9Y275 134-285); test: ELISA, BAFF coated, anti-human Fc-HRP
[2] = target: T1, BAFF (PeproTech, Cat: 310-13); test: ELISA, BAFF coated, anti-human Fc-HRP, OD450
Procedure: (§1) The capabilities of TACI-BCMA fusion proteins (B575701, B575702, B575703, and B575704) to bind to BAFF and APRIL were assessed by ELISA as follows:
(§2) BAFF (PeproTech, Cat: 310-13) or ARPIL (Acro Biosystems, Cat: APL-H52D1) was diluted to 1 μg/mL with PBS, and a 96-well plate (Costar, Cat: 3590) was coated with the dilution overnight at 4° C. The plate was washed with PBST and blocked with Blocking Buffer (PBST containing 1% BSA) at 37° C. for 1 h. The plate was tapped. The test antibodies were diluted with Blocking Buffer. Incubation was performed at 37° C. for 1.5 h. The plate was washed with PBST. An HRP-mouse anti-human Fc antibody (GenScript, Cat: A01854-200) was diluted with Blocking Buffer. Incubation was performed at 37° C. for 40 min. The plate was washed with PBST. 100 μL of TMB substrate solution (Biopanda, Cat: TMB-S-003) was added, and color development was performed at 37° C. for 3 min. 100 μL of ELISA stop solution (Solarbio, Cat: C1058) was added. OD450 was measured.

[3] = target: T2, APRIL (Acro Biosystems, Cat: APL-H52D1) (UniProt O75888 115-250, limits assumed); test: ELISA, APRIL coated, anti-human Fc-HRP, OD450
T2 construct: also called ARPIL; A proliferation-inducing ligand
T2 sequence (looked up): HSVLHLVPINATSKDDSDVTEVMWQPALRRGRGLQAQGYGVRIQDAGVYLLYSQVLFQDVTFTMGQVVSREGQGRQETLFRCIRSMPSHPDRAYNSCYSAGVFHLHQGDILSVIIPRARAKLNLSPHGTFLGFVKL
Procedure: as §1, §2

[4] = target: T2, APRIL (Acro Biosystems, Cat: APL-H52D1); test: ELISA, APRIL coated, anti-human Fc-HRP, OD450; remark: listed apart in the source
Procedure: The capabilities of B613301, B613302, and B613303, which are fusion proteins of anifrolumab and TACI-BCMA, to bind to BAFF and APRIL were assessed by ELISA as follows:
as §2

[5] = target: recombinant human BAFF (R&D cat: 7537-BF-025/CF) (human, UniProt Q9Y275 134-285, limits assumed); test: cell-based or functional assay
[6] = target: T3, recombinant human ARPIL (R&D cat: 5860-AP-010/CF) (human, UniProt O75888 105-250, limits assumed); test: cell-based or functional assay
T3 sequence (looked up): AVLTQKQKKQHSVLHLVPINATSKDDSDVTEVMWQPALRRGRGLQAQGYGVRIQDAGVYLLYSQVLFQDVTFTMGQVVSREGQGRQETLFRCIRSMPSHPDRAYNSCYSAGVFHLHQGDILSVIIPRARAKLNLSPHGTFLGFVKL

[7] = target: T2, APRIL (Acro Biosystems, Cat: APL-H52D1); test: ELISA, APRIL coated, anti-human Fc-HRP, OD450; remark: listed apart in the source
Procedure: The capabilities of fusion proteins B606401, B637302, B746201, and B805201 to bind to BAFF and APRIL were assessed by ELISA as follows:
as §2, with “plate” for “plate (Costar, Cat: 3590)”
The EC₅₀ value for the capability of B637302 to bind to APRIL decreased to 1/7 to ⅙ of that of telitacicept.

T1 sequence (Q9Y275 134-285 limits assumed): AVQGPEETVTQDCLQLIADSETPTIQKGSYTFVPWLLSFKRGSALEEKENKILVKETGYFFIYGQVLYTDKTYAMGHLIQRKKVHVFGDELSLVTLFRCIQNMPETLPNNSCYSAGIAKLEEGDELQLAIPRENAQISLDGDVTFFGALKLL
Chain of recombinant human BAFF (R&D cat: 7537-BF-025/CF) (Q9Y275 134-285 limits assumed): as above

Binder | EC50 relative to that of telitacicept [1] [ratio] | Emax [2] [nM] | Emax [3] [nM] | Emax [4] [nM] | further results
B1 | 0.25 | 2.24 | 2.64 |  | 
B2 | 0.5 | 2.43 | 2.78 |  | 
B3 | 0.5 | 2.31 | 2.69 |  | 
B4 | 0.25 | 2.29 | 2.68 |  | 
B5 |  |  |  | 2.49 | 
B6 |  |  |  | 2.52 | 
B7 |  | 2.28 | 2.62 | 2.5 | Flow cytometry proliferating B cell proportion (%), mean, BAFF-induced, drug at 10 nM [5]: 36%; Flow cytometry proliferating B cell proportion (%), mean, BAFF-induced, drug at 100 nM [5]: 30.7%; Flow cytometry proliferating B cell proportion (%), mean, BAFF-induced, drug at 1000 nM [5]: 24.3%; Flow cytometry proliferating B cell proportion (%), mean, APRIL-induced, drug at 4.12 nM [6]: 48.1%; Flow cytometry proliferating B cell proportion (%), mean, APRIL-induced, drug at 12.35 nM [6]: 49.2%; Flow cytometry proliferating B cell proportion (%), mean, APRIL-induced, drug at 37.04 nM [6]: 50.1%; Flow cytometry proliferating B cell proportion (%), mean, APRIL-induced, drug at 111.11 nM [6]: 50.3%; Flow cytometry proliferating B cell proportion (%), mean, APRIL-induced, drug at 333.33 nM [6]: 49.1%; Flow cytometry proliferating B cell proportion (%), mean, APRIL-induced, drug at 1000.00 nM [6]: 46.3%; Emax [7]: 2.98 nM
